Reference: US20220298218A1 (ANTAG THERAPEUTICS, published 2022)
*1 amine or outer side, *2 acyl side, *3 side chain or, on linkers, in order; H or OH if unused. Where no end group is shown, it is not given here. Side-chain parts run from the residue outwards. [ ]: non-standard residue; d: D form. The star is where a group is joined. C18 diacid = O=C(O)CCCCCCCCCCCCCCCCC(=O)*; γGlu = O=C(O)[C@H](CCC(=O)[*:2])N[*:1]; Nle = CCCC[C@H](N)C(=O)O; AEEA = NCCOCCOCC(=O)O; Aib = CC(C)(N)C(=O)O

Biological target: T1, human GIP receptor (human, UniProt P48546 22-466)
T1 sequence (looked up): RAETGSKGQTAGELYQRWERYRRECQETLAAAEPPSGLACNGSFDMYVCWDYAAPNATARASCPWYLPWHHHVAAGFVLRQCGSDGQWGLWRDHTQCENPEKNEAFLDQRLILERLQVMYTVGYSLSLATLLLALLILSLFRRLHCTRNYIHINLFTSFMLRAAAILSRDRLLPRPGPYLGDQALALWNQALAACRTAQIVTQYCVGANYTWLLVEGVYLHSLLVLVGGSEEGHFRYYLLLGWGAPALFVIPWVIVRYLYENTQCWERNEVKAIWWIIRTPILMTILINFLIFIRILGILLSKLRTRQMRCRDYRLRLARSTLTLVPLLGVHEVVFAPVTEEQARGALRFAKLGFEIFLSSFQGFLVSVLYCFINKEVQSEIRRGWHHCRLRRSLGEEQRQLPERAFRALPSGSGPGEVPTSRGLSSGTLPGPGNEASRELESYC
Test: cell-based or functional assay

B1: AT690 (peptide)
peptide: EGTFISDYSIA[Nle]DKIK([AEEA-AEEA-γGlu-C18 diacid])QQDFVNWLLEQKPSSGAPPPS-OH
modifications: N-terminus assumed
SMILES: CCCC[C@H](NC(=O)[C@H](C)NC(=O)[C@@H](NC(=O)[C@H](CO)NC(=O)[C@H](Cc1ccc(O)cc1)NC(=O)[C@H](CC(=O)O)NC(=O)[C@H](CO)NC(=O)[C@@H](NC(=O)[C@H](Cc1ccccc1)NC(=O)[C@@H](NC(=O)CNC(=O)[C@@H](N)CCC(=O)O)[C@@H](C)O)[C@@H](C)CC)[C@@H](C)CC)C(=O)N[C@@H](CC(=O)O)C(=O)N[C@@H](CCCCN)C(=O)N[C@H](C(=O)N[C@@H](CCCCNC(=O)COCCOCCNC(=O)COCCOCCNC(=O)CC[C@H](NC(=O)CCCCCCCCCCCCCCCCC(=O)O)C(=O)O)C(=O)N[C@@H](CCC(N)=O)C(=O)N[C@@H](CCC(N)=O)C(=O)N[C@@H](CC(=O)O)C(=O)N[C@@H](Cc1ccccc1)C(=O)N[C@H](C(=O)N[C@@H](CC(N)=O)C(=O)N[C@@H](Cc1c[nH]c2ccccc12)C(=O)N[C@@H](CC(C)C)C(=O)N[C@@H](CC(C)C)C(=O)N[C@@H](CCC(=O)O)C(=O)N[C@@H](CCC(N)=O)C(=O)N[C@@H](CCCCN)C(=O)N1CCC[C@H]1C(=O)N[C@@H](CO)C(=O)N[C@@H](CO)C(=O)NCC(=O)N[C@@H](C)C(=O)N1CCC[C@H]1C(=O)N1CCC[C@H]1C(=O)N1CCC[C@H]1C(=O)N[C@@H](CO)C(=O)O)C(C)C)[C@@H](C)CC
In the case of B1, the “cAMP agonism % Emax” value is reported as 6%, the “cAMP antagonism” value is reported as 15.9 nM and the “cAMP antagonism % inhib” value is reported as 76%. The “cAMP antagonism pIC50” value was 7.8.

B2: AT691 (peptide)
peptide: EGTFISDYSIALDKIK([AEEA-AEEA-γGlu-C18 diacid])QQDFVNWLLEGGPSSGAPPPS-OH
modifications: N-terminus assumed
SMILES: CC[C@H](C)[C@H](NC(=O)[C@H](CO)NC(=O)[C@H](Cc1ccc(O)cc1)NC(=O)[C@H](CC(=O)O)NC(=O)[C@H](CO)NC(=O)[C@@H](NC(=O)[C@H](Cc1ccccc1)NC(=O)[C@@H](NC(=O)CNC(=O)[C@@H](N)CCC(=O)O)[C@@H](C)O)[C@@H](C)CC)C(=O)N[C@@H](C)C(=O)N[C@@H](CC(C)C)C(=O)N[C@@H](CC(=O)O)C(=O)N[C@@H](CCCCN)C(=O)N[C@H](C(=O)N[C@@H](CCCCNC(=O)COCCOCCNC(=O)COCCOCCNC(=O)CC[C@H](NC(=O)CCCCCCCCCCCCCCCCC(=O)O)C(=O)O)C(=O)N[C@@H](CCC(N)=O)C(=O)N[C@@H](CCC(N)=O)C(=O)N[C@@H](CC(=O)O)C(=O)N[C@@H](Cc1ccccc1)C(=O)N[C@H](C(=O)N[C@@H](CC(N)=O)C(=O)N[C@@H](Cc1c[nH]c2ccccc12)C(=O)N[C@@H](CC(C)C)C(=O)N[C@@H](CC(C)C)C(=O)N[C@@H](CCC(=O)O)C(=O)NCC(=O)NCC(=O)N1CCC[C@H]1C(=O)N[C@@H](CO)C(=O)N[C@@H](CO)C(=O)NCC(=O)N[C@@H](C)C(=O)N1CCC[C@H]1C(=O)N1CCC[C@H]1C(=O)N1CCC[C@H]1C(=O)N[C@@H](CO)C(=O)O)C(C)C)[C@@H](C)CC
With B2 the “cAMP agonism % Emax” value was 7%, the “cAMP antagonism” value was 20 nM and the “cAMP antagonism % inhib” value was 75%. The “cAMP antagonism pIC50” value was 7.8.

B3: AT689 (peptide)
peptide: EGTFISDYSIALDKIK([AEEA-AEEA-γGlu-C18 diacid])QQDFVNWLLEQKPSSGAPPPS-OH
modifications: N-terminus assumed
SMILES: CC[C@H](C)[C@H](NC(=O)[C@H](CO)NC(=O)[C@H](Cc1ccc(O)cc1)NC(=O)[C@H](CC(=O)O)NC(=O)[C@H](CO)NC(=O)[C@@H](NC(=O)[C@H](Cc1ccccc1)NC(=O)[C@@H](NC(=O)CNC(=O)[C@@H](N)CCC(=O)O)[C@@H](C)O)[C@@H](C)CC)C(=O)N[C@@H](C)C(=O)N[C@@H](CC(C)C)C(=O)N[C@@H](CC(=O)O)C(=O)N[C@@H](CCCCN)C(=O)N[C@H](C(=O)N[C@@H](CCCCNC(=O)COCCOCCNC(=O)COCCOCCNC(=O)CC[C@H](NC(=O)CCCCCCCCCCCCCCCCC(=O)O)C(=O)O)C(=O)N[C@@H](CCC(N)=O)C(=O)N[C@@H](CCC(N)=O)C(=O)N[C@@H](CC(=O)O)C(=O)N[C@@H](Cc1ccccc1)C(=O)N[C@H](C(=O)N[C@@H](CC(N)=O)C(=O)N[C@@H](Cc1c[nH]c2ccccc12)C(=O)N[C@@H](CC(C)C)C(=O)N[C@@H](CC(C)C)C(=O)N[C@@H](CCC(=O)O)C(=O)N[C@@H](CCC(N)=O)C(=O)N[C@@H](CCCCN)C(=O)N1CCC[C@H]1C(=O)N[C@@H](CO)C(=O)N[C@@H](CO)C(=O)NCC(=O)N[C@@H](C)C(=O)N1CCC[C@H]1C(=O)N1CCC[C@H]1C(=O)N1CCC[C@H]1C(=O)N[C@@H](CO)C(=O)O)C(C)C)[C@@H](C)CC
B3 was tested, and the “cAMP agonism % Emax” value was 3%, the “cAMP antagonism” value was 10 nM and the “cAMP antagonism % inhib” value was 82%. For the same binder, the “cAMP antagonism pIC50” value was 8.

B4: AT693 (peptide)
peptide: EGTFISEYSIALEKIK([AEEA-AEEA-γGlu-C18 diacid])QQEFVEWLLAQKPSSGAPPPS-OH
modifications: N-terminus assumed
SMILES: CC[C@H](C)[C@H](NC(=O)[C@H](CO)NC(=O)[C@H](Cc1ccc(O)cc1)NC(=O)[C@H](CCC(=O)O)NC(=O)[C@H](CO)NC(=O)[C@@H](NC(=O)[C@H](Cc1ccccc1)NC(=O)[C@@H](NC(=O)CNC(=O)[C@@H](N)CCC(=O)O)[C@@H](C)O)[C@@H](C)CC)C(=O)N[C@@H](C)C(=O)N[C@@H](CC(C)C)C(=O)N[C@@H](CCC(=O)O)C(=O)N[C@@H](CCCCN)C(=O)N[C@H](C(=O)N[C@@H](CCCCNC(=O)COCCOCCNC(=O)COCCOCCNC(=O)CC[C@H](NC(=O)CCCCCCCCCCCCCCCCC(=O)O)C(=O)O)C(=O)N[C@@H](CCC(N)=O)C(=O)N[C@@H](CCC(N)=O)C(=O)N[C@@H](CCC(=O)O)C(=O)N[C@@H](Cc1ccccc1)C(=O)N[C@H](C(=O)N[C@@H](CCC(=O)O)C(=O)N[C@@H](Cc1c[nH]c2ccccc12)C(=O)N[C@@H](CC(C)C)C(=O)N[C@@H](CC(C)C)C(=O)N[C@@H](C)C(=O)N[C@@H](CCC(N)=O)C(=O)N[C@@H](CCCCN)C(=O)N1CCC[C@H]1C(=O)N[C@@H](CO)C(=O)N[C@@H](CO)C(=O)NCC(=O)N[C@@H](C)C(=O)N1CCC[C@H]1C(=O)N1CCC[C@H]1C(=O)N1CCC[C@H]1C(=O)N[C@@H](CO)C(=O)O)C(C)C)[C@@H](C)CC
With B4 the “cAMP agonism % Emax” value was 0%, the “cAMP antagonism” value was 1.26 nM and the “cAMP antagonism % inhib” value was 96%. For the same binder, the “cAMP antagonism pIC50” value was 8.9.

B5: AT695 (peptide)
peptide: EGTFISEYSI[Aib]LEKIK([AEEA-AEEA-γGlu-C18 diacid])QQEFVEWLLAQKPSSGAPPPS-OH
modifications: N-terminus assumed
SMILES: CC[C@H](C)[C@H](NC(=O)[C@H](CCCCN)NC(=O)[C@H](CCC(=O)O)NC(=O)[C@H](CC(C)C)NC(=O)C(C)(C)NC(=O)[C@@H](NC(=O)[C@H](CO)NC(=O)[C@H](Cc1ccc(O)cc1)NC(=O)[C@H](CCC(=O)O)NC(=O)[C@H](CO)NC(=O)[C@@H](NC(=O)[C@H](Cc1ccccc1)NC(=O)[C@@H](NC(=O)CNC(=O)[C@@H](N)CCC(=O)O)[C@@H](C)O)[C@@H](C)CC)[C@@H](C)CC)C(=O)N[C@@H](CCCCNC(=O)COCCOCCNC(=O)COCCOCCNC(=O)CC[C@H](NC(=O)CCCCCCCCCCCCCCCCC(=O)O)C(=O)O)C(=O)N[C@@H](CCC(N)=O)C(=O)N[C@@H](CCC(N)=O)C(=O)N[C@@H](CCC(=O)O)C(=O)N[C@@H](Cc1ccccc1)C(=O)N[C@H](C(=O)N[C@@H](CCC(=O)O)C(=O)N[C@@H](Cc1c[nH]c2ccccc12)C(=O)N[C@@H](CC(C)C)C(=O)N[C@@H](CC(C)C)C(=O)N[C@@H](C)C(=O)N[C@@H](CCC(N)=O)C(=O)N[C@@H](CCCCN)C(=O)N1CCC[C@H]1C(=O)N[C@@H](CO)C(=O)N[C@@H](CO)C(=O)NCC(=O)N[C@@H](C)C(=O)N1CCC[C@H]1C(=O)N1CCC[C@H]1C(=O)N1CCC[C@H]1C(=O)N[C@@H](CO)C(=O)O)C(C)C
With B5 the “cAMP agonism % Emax” value was 0%, the “cAMP antagonism” value was 0.794 nM and the “cAMP antagonism % inhib” value was 98%. The “cAMP antagonism pIC50” value was 9.1.

B6: AT694 (peptide)
peptide: EGTFISEYSIA[Nle]EKIK([AEEA-AEEA-γGlu-C18 diacid])QQEFVEWLLAQKPSSGAPPPS-OH
modifications: N-terminus assumed
SMILES: CCCC[C@H](NC(=O)[C@H](C)NC(=O)[C@@H](NC(=O)[C@H](CO)NC(=O)[C@H](Cc1ccc(O)cc1)NC(=O)[C@H](CCC(=O)O)NC(=O)[C@H](CO)NC(=O)[C@@H](NC(=O)[C@H](Cc1ccccc1)NC(=O)[C@@H](NC(=O)CNC(=O)[C@@H](N)CCC(=O)O)[C@@H](C)O)[C@@H](C)CC)[C@@H](C)CC)C(=O)N[C@@H](CCC(=O)O)C(=O)N[C@@H](CCCCN)C(=O)N[C@H](C(=O)N[C@@H](CCCCNC(=O)COCCOCCNC(=O)COCCOCCNC(=O)CC[C@H](NC(=O)CCCCCCCCCCCCCCCCC(=O)O)C(=O)O)C(=O)N[C@@H](CCC(N)=O)C(=O)N[C@@H](CCC(N)=O)C(=O)N[C@@H](CCC(=O)O)C(=O)N[C@@H](Cc1ccccc1)C(=O)N[C@H](C(=O)N[C@@H](CCC(=O)O)C(=O)N[C@@H](Cc1c[nH]c2ccccc12)C(=O)N[C@@H](CC(C)C)C(=O)N[C@@H](CC(C)C)C(=O)N[C@@H](C)C(=O)N[C@@H](CCC(N)=O)C(=O)N[C@@H](CCCCN)C(=O)N1CCC[C@H]1C(=O)N[C@@H](CO)C(=O)N[C@@H](CO)C(=O)NCC(=O)N[C@@H](C)C(=O)N1CCC[C@H]1C(=O)N1CCC[C@H]1C(=O)N1CCC[C@H]1C(=O)N[C@@H](CO)C(=O)O)C(C)C)[C@@H](C)CC
With B6 the “cAMP agonism % Emax” value was 4%, the “cAMP antagonism” value was 1.47 nM and the “cAMP antagonism % inhib” value was 88%. For the same binder, the “cAMP antagonism pIC50” value was 8.8.
